Columns and labels:
[1] = target: the molecule itself; test: AUC; sedimentation equilibrium, 12,000 and 14,000 rpm, 25 °C, 20 mM sodium phosphate pH 7.4, 150 mM NaCl, 3 mM KCl; monomer-dimer equilibrium model (SEDPHAT); dimer to monomers
[2] = target: the molecule itself; test: AUC; sedimentation equilibrium, 12,000 and 14,000 rpm, 20 mM sodium acetate pH 5, 150 mM NaCl, 3 mM KCl; dimer to monomers, limit calculated from detection of 10% monomer

B1: recombinant human β-gal (rhβ-gal) (enzyme)
chain: QRMFEIDYSRDSFLKDGQPFRYISGSIHYSRVPRFYWKDRLLKMKMAGLNAIQTYVPWNFHEPWPGQYQFSEDHDVEYFLRLAHELGLLVILRPGPYICAEWEMGGLPAWLLEKESILLRSSDPDYLAAVDKWLGVLLPKMKPLLYQNGGPVITVQVENEYGSYFACDFDYLRFLQKRFRHHLGDDVVLFTTDGAHKTFLKCGALQGLYTTVDFGTGSNITDAFLSQRKCEPKGPLINSEFYTGWLDHWGQPHSTIKTEAVASSLYDILARGASVNLYMFIGGTNFAYWNGANSPYAAQPTSYDYDAPLSEAGDLTEKYFALRNIIQKFEKVPEGPIPPSTPKFAYGKVTLEKLKTVGAALDILCPSGPIKSLYPLTFIQVKQHYGFVLYRTTLPQDCSNPAPLSSPLNGVHDRAYVAVDGIPQGVLERNNVITLNITGKAGATLDLLVENMGRVNYGAYINDFKGLVSNLTLSSNILTDWTIFPLDTEDAVRSHLGGWGHRDSGHHDEAWAHNSSNYTLPAFYMGNFSIPSGIPDLPQDTFIQFPGWTKGQVWINGFNLGRYWPARGPQLTLFVPQHILMTSAPNTITVLELEWAPCSSDDPELCAVTFVDRPVIGSSVTYDHPSKPVEKRLMPPPPQKNKDSWLDHV
modifications: N-linked glycans; about 9% of the total glycan composition is bisphosphorylated oligomannose (BPM7)
notes: human lysosomal β-galactosidase (GLB1), secreted from CHO cells as the precursor, nonlysosomal enzyme (not the lysosomally processed mature form); No tag is mentioned; PDB 3THC is another preparation, treated by limited proteolysis, with residues 648-677 not determined; also called β-galactosidase; lysosomal β-gal
- Kd [1]: 243 nM
- Kd [2]: ≤ 2 nM
- stoichiometry N [2]: 2
